T1: 14‐3‐3τ (human, UniProt P27348 1-245)
T1 construct: 14-3-3 tau/theta, human, full-length protein from the pProEx HTb-His-14-3-3 construct; Written as the protomer; tag removal is told only for the ∆C proteins; also called τ/θ; source: E. coli BL21(DE3), purified (Ni2+-NTA, dialysis)
T1 sequence (looked up): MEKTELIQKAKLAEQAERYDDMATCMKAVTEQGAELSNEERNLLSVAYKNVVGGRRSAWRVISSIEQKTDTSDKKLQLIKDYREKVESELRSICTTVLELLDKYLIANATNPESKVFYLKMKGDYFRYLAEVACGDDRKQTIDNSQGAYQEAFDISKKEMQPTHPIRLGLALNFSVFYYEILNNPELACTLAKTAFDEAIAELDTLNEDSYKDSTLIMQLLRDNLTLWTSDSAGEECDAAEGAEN

T2: 14‐3‐3ζ (human, UniProt P63104 1-245)
T2 construct: 14-3-3 zeta, human, full-length protein from the pProEx HTb-His-14-3-3 construct; Written as the protomer; tag removal is told only for the ∆C proteins; source: E. coli BL21(DE3), purified (Ni2+-NTA, dialysis)
T2 sequence (looked up): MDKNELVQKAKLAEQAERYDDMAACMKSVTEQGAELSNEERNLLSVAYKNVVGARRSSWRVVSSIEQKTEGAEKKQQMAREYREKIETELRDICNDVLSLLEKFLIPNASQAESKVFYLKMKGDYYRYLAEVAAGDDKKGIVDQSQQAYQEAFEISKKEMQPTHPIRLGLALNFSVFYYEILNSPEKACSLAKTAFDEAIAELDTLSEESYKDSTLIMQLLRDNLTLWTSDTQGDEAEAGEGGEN

T3: 14‐3‐3σ (human, UniProt P31947 1-248)
T3 construct: 14-3-3 sigma, human, full-length protein from the pProEx HTb-His-14-3-3 construct (used in the FA assays); Written as the protomer; tag removal is told only for the ∆C proteins; source: E. coli BL21(DE3), purified (Ni2+-NTA, dialysis)
T3 sequence (looked up): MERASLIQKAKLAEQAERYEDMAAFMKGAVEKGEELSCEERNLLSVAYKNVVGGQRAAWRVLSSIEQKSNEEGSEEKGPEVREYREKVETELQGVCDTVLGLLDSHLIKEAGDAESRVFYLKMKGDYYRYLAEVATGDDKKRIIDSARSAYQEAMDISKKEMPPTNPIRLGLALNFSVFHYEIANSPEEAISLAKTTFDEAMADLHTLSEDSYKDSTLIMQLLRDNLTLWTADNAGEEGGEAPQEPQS

T4: 14‐3‐3β (human, UniProt P31946 1-246)
T4 construct: 14-3-3 beta, human, full-length protein from the pProEx HTb-His-14-3-3 construct; Written as the protomer; tag removal is told only for the ∆C proteins; source: E. coli BL21(DE3), purified (Ni2+-NTA, dialysis)
T4 sequence (looked up): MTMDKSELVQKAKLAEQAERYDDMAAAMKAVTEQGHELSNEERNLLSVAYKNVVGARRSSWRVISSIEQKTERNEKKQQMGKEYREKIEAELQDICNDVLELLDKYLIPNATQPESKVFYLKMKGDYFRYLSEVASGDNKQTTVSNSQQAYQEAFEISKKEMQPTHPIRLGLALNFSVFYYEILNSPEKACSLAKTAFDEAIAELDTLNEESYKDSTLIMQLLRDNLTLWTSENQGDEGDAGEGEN

T5: 14‐3‐3ε (human, UniProt P62258 1-255)
T5 construct: 14-3-3 epsilon, human, full-length protein from the pProEx HTb-His-14-3-3 construct; Written as the protomer; tag removal is told only for the ∆C proteins; source: E. coli BL21(DE3), purified (Ni2+-NTA, dialysis)
T5 sequence (looked up): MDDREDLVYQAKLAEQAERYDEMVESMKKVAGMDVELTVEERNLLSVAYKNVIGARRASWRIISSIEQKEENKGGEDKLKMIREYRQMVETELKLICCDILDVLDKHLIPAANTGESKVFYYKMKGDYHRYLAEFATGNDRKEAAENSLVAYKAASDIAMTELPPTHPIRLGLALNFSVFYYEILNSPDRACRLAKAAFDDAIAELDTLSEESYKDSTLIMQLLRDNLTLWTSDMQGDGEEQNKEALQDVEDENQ

B1: 14‐3‐3γ (natural protein, human, UniProt P61981 1-247, looked up)
chain: MVDREQLVQKARLAEQAERYDDMAAAMKNVTELNEPLSNEERNLLSVAYKNVVGARRSSWRVISSIEQKTSADGNEKKIEMVRAYREKIEKELEAVCQDVLSLLDNYLIKNCSETQYESKVFYLKMKGDYYRYLAEVATGEKRATVVESSEKAYSEAHEISKEHMQPTHPIRLGLALNYSVFYYEIQNAPEQACHLAKTAFDDAIAELDTLNEDSYKDSTLIMQLLRDNLTLWTSDQQDDDGGEGNN
notes: 14-3-3 gamma, human, full-length protein from the pProEx HTb-His-14-3-3 construct; Written as the protomer; tag removal is told only for the ∆C proteins; source: E. coli BL21(DE3), purified (Ni2+-NTA, dialysis)
B2: FAM‐Ahx‐hDM2_(160‐192) ^pSer166/pSer186 (peptide)
peptide: SRRRAISETEENSDELSGERQRKRHKSDSISLS
modifications: phosphoserine at 166 and at 186; N-terminal FAM-Ahx (5,6-carboxyfluorescein on an aminohexanoic acid linker); C-terminal amide
notes: hDM2 (human double minute 2 protein), human, residues 160-192; Tracer form used in the FA assays; source: synthetic peptide (Fmoc SPPS on Rink amide ProTide resin, HPLC purified)
B3: FAM‐Ahx‐hDMX_(335‐373) ^pSer342/pSer367 (peptide)
peptide: {FAM-Ahx}-SKLTHSL[pS]TSDITAIPEKENEGNDVPDCRRTI[pS]APVVRP-NH2
notes: hDMX (human double minute 4 protein, hDM4), human, residues 335-373; Tracer form used in the FA assays; source: synthetic peptide (Fmoc SPPS on Rink amide ProTide resin, HPLC purified)
B4: 14‐3‐3η (natural protein, human, UniProt Q04917 1-246, looked up)
chain: MGDREQLLQRARLAEQAERYDDMASAMKAVTELNEPLSNEDRNLLSVAYKNVVGARRSSWRVISSIEQKTMADGNEKKLEKVKAYREKIEKELETVCNDVLSLLDKFLIKNCNDFQYESKVFYLKMKGDYYRYLAEVASGEKKNSVVEASEAAYKEAFEISKEQMQPTHPIRLGLALNFSVFYYEIQNAPEQACLLAKQAFDDAIAELDTLNEDSYKDSTLIMQLLRDNLTLWTSDQQDEEAGEGN
notes: 14-3-3 eta, human, full-length protein from the pProEx HTb-His-14-3-3 construct; Captured on an NTA chip in SPR; source: E. coli BL21(DE3), purified (Ni2+-NTA, dialysis)

The target in data set [1] is B2. The data set is described as follows: fluorescence polarisation; fluorescence anisotropy, direct titration: 14-3-3 protein titrated (1/2 dilution series) against 50 nM FAM-Ahx tracer peptide; 10 mM HEPES, 150 mM NaCl, 0.1% Tween 20, 0.1% BSA, pH 7.4; 384 well plates, triplicates; protein concentration as 14-3-3 monomer; 1:1 fit, biphasic curves fitted as two separate 1:1 events (Kd1, Kd2). Particulars: both partners purified.

In data set [2] the target is B3. The description is as above. Particulars: both partners purified.
The next data set deals with T1, 14‐3‐3τ. Described as above. Particulars: both partners purified.
A further data set concerns the target T2, 14‐3‐3ζ. The description is as above. Particulars: both partners purified.
A further data set has as its target T3, 14‐3‐3σ. The description is as above. Particulars: both partners purified.
Another data set concerns the target T4, 14‐3‐3β. The data set is described as above. Particulars: both partners purified.
The target in the next data set is T5, 14‐3‐3ε. The description is as above. Particulars: both partners purified.
Data set [3] concerns the molecule itself. The data set is described as follows: AUC; sedimentation velocity; 14 μM 14-3-3η alone or with 7 μM or 14 μM hDMX pSer342/pSer367 peptide; 10 mM HEPES, 150 mM NaCl, pH 7.4; 25 °C; c(s) by SEDFIT.

[ ]: non-standard residue; d: D form. pS = N[C@@H](COP(=O)(O)O)C(=O)O; FAM = 5,6-carboxyfluorescein; Ahx = NCCCCCC(=O)O

As to B1, the results for the “Kd1 (first binding event)” value in data set [1] and in data set [2] were 0.089 ± 0.01 µM and 0.091 ± 0.015 µM, respectively.

As for B2, the binding result with 14‐3‐3τ, in the data set with 14‐3‐3ζ, in the data set with 14‐3‐3σ, with 14‐3‐3β and in the data set with 14‐3‐3ε was “binds” each time.

B3: the binding result with 14‐3‐3τ, with 14‐3‐3ζ, with 14‐3‐3σ and with 14‐3‐3ε was “binds” in each case.

Turning to B4, the results for the “Kd1 (first binding event)” value in data set [1] and in data set [2] were 0.05 ± 0.012 µM and 0.03 ± 0.006 µM, respectively. Also, the “stoichiometry N” value in data set [3] worked out at 2.

Source of the values: paper PMC9541495, “Understanding the interaction of 14‐3‐3 proteins with hDMX and hDM2: a structural and biophysical study” (The Febs Journal, 2022).
